The data set deals with the molecule itself. Description: SEC.

Residue numbers refer to the chain shown, from its start. In names and notes the source's numbering stands.

B1: human NLRP10 (aa 4-655) (natural protein)
chain: AKARKPREALLWALSDLEENDFKKLKFYLRDMTLSEGQPPLARGELEGLIPVDLAELLISKYGEKEAVKVVLKGLKVMNLLELVDQLSHICLHDYREVYREHVRCLEEWQEAGVNGRYNQVLLVAKPSSESPESLACPFPEQELESVTVEALFDSGEKPSLAPSLVVLQGSAGTGKTTLARKMVLDWATGTLYPGRFDYVFYVSCKEVVLLLESKLEQLLFWCCGDNQAPVTEILRQPERLLFILDGFDELQRPFEEKLKKRGLSPKESLLHLLIRRHTLPTCSLLITTRPLALRNLEPLLKQARHVHILGFSEEERARYFSSYFTDEKQADRAFDIVQKNDILYKACQVPGICWVVCSWLQGQMERGKVVLETPRNSTDIFMAYVSTFLPPDDDGGCSELSRHRVLRSLCSLAAEGIQHQRFLFEEAELRKHNLDGPRLAAFLSSNDYQLGLAIKKFYSFRHISFQDFFHAMSYLVKEDQSRLGKESRREVQRLLEVKEQEGNDEMTLTMQFLLDISKKDSFSNLELKFCFRISPCLAQDLKHFKEQMESMKHNRTWDLEFSLYEAKIKNLVKGIQMNNVSFKIKHSNEKKSQSQNLFSVKSSLSHGPKEEQKCPSVHGQKEGKDNIAGTQKEASTGKGRGTEETPKNTYI
For B1, the binding result is “binds”.

B2: Walker A mutant human NLRP10 (aa 4-655 K179A) (natural protein)
chain: B1 chain with K176A
Consider B2, for which the binding result is listed as “binds”.

For the origin of these results see paper doi:10.1101/2025.11.27.690698 (bioRxiv, 2025).
